Data taken from paper PMC2132824.
“And” between values parts separate entries of the source, which are not always exact repeats. Equal values may be shown once.

Legend:
Assay in all cases: co-sedimentation
[1] = molecular target: human platelet nonmuscle F-actin (human) (UniProt P60709)
[2] = molecular target: rabbit skeletal muscle F-actin (rabbit) (UniProt P68135)
F-actin = molecular target: F-actin

- Kd [1]: 50 nM
- Kd [2]: 150 nM
- stoichiometry N (actin monomers per espin) (F-actin): 3 and 4
Substance: recombinant full-length small espin (natural protein)
